Where no end group is shown, it is not given here.
B1: Phage-3605, clonal phage showing a Peptide-180 library peptide (peptide)
peptide: WTFKCEPVWMCEGF
notes: Tested as crude clonal phage supernatant; not shown: pIII filament protein of the bacteriophage, fused to the peptide
B2: Phage-3606, clonal phage showing a Peptide-180 library peptide (peptide)
peptide: VVVSCTPSWMCTGL
notes: as for B1
B3: Phage-3604, clonal phage showing a Peptide-180 library peptide (peptide)
peptide: HVAMCQPTWMCMGF
modifications: cysteine pairing not given here; also: fused to pIII of bacteriophage, junction and order not given here
notes: as for B1
B4: Phage-3574 (peptide)
peptide: EDIKCIPRWMCEGF
notes: Peptide-180 library clone, tested as clonal phage supernatant with the peptide fused to pIII of the bacteriophage
B5: Phage-3573 (peptide)
peptide: AWMRCEPAWMCVGF
notes: as for B4
B6: Phage-3572 (peptide)
peptide: VPTLCKPSWMCYGF
notes: as for B4
B7: Phage-3571 (peptide)
peptide: EMPLCIPQWMCGGF
notes: as for B4
B8: Phage-3575 (peptide)
peptide: FIAQCQPTWMCTGF
notes: as for B4

Key:
PSMA Fab [1] = biological target: T1, PSMA Fab (biotinylated (site not stated)); assay: clonal phage ELISA on captured PSMA Fab, competitor PSMA antigen pre-incubated
T1 construct: Biotinylated PSMA Fab captured on neutravidin coated plates in the phage ELISA; also called Anti-PSMA Fab; 006 PSMA Fab

PSMA Fab [2] = biological target: T1, PSMA Fab; assay: clonal phage ELISA on biotinylated PSMA Fab captured on neutravidin, anti-M13 HRP detection;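 further: crude clonal phage supernatants added to wells pretreated with PSMA antigen in blocking buffer or with blocking buffer only, then briefly incubated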
Experimental: (§1) Clonal phage were harvested as crude supernatants and screened via standard ELISAs. […] Prior to the addition of clonal phage. wells were incubated with blocking buffer and PSMA antigen or blocking buffer alone. Without washing or aspirating, clonal phage supernatants were then added to the wells and incubated for a short time. Wells were then washed followed by detection of bound phage using a horse radish conjugated anti-M13 antibody.

Anti-PSMA Fab [3] = biological target: T2, Anti-PSMA Fab; assay: phage binding ELISA on captured anti-PSMA Fab; wells pre-incubated with PSMA antigen as competitor; anti-M13-HRP detection
T2 construct: Biotinylated and captured on neutravidin coated plates in the phage ELISA; also called 006 PSMA Fab
Experimental: as §1

Anti-PSMA Fab [4] = biological target: T2, Anti-PSMA Fab; assay: phage binding ELISA; clonal phage supernatant on biotinylated anti-PSMA Fab captured on neutravidin plate; anti-M13-HRP detection
Experimental: as §1

[5] = biological target: T3, PSMA Fab (006 PSMA Fab), biotinylated (biotinylated (site and chain not stated)); assay: phage ELISA; biotinylated PSMA Fab on neutravidin plate, blocking buffer alone, bound phage detected with HRP anti-M13 antibody
T3 construct: also called Anti-PSMA Fab; anti-PSMA Fab

[6] = biological target: T3, PSMA Fab (006 PSMA Fab), biotinylated; assay: phage ELISA; biotinylated PSMA Fab on neutravidin plate, wells first incubated with PSMA antigen as competitor, HRP anti-M13 detection
Experimental: as §1

PSMA Fab (006 PSMA Fab) [7] = biological target: T4, PSMA Fab (006 PSMA Fab); assay: clonal phage ELISA on biotinylated PSMA Fab captured on neutravidin, anti-M13 HRP detection;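 further: crude clonal phage supernatants added to wells pretreated with PSMA antigen in blocking buffer or with blocking buffer only, then briefly incubated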
T4 construct: also called Anti-PSMA Fab
Experimental: as §1

PSMA Fab (006 PSMA Fab) [8] = biological target: T4, PSMA Fab (006 PSMA Fab); assay: clonal phage ELISA on captured PSMA Fab, wells pre-incubated with PSMA antigen as competitor
Experimental: as §1

Binder	Phage binding ELISA signal, Anti-PSMA Fab with PSMA antigen (PSMA Fab [1])	Phage binding ELISA signal, Anti-PSMA Fab (PSMA Fab [2])	Phage binding ELISA signal, Anti-PSMA Fab with PSMA antigen (Anti-PSMA Fab [3])	Phage binding ELISA signal, Anti-PSMA Fab (Anti-PSMA Fab [4])	further results
VETLCRPAWMCWGF [Phage-3598]	0.0788	1.59			
NLGWCVPVWMCEGF (Tested as clonal phage supernatant) [Phage-3586 (Peptide-180 library clone)]			0.101	1.61	
HEPVCRPEWMCQGF (Tested as clonal phage supernatant) [Phage-3587 (Peptide-180 library clone)]			0.0717	1.6	
YDVVCKPAWMCNGF (Tested as clonal phage supernatant) [Phage-3578 (Peptide-180 library clone)]			0.0676	1.62	
YEKLCEPRWMCDGF (Tested as clonal phage supernatant) [Phage-3577 (Peptide-180 library clone)]			0.0657	1.62	
HEPVCKPSWMCTGL [Phage-3602]	0.0595	1.58			
TFMRCEPVWMCDGF (Tested as clonal phage supernatant) [Phage-3585 (Peptide-180 library clone)]			0.0709	1.61	
B1					Phage binding ELISA signal, Anti-PSMA Fab [5]: 1.58; Phage binding ELISA signal, Anti-PSMA Fab with PSMA antigen [6]: 0.101
B2					Phage binding ELISA signal, Anti-PSMA Fab [5]: 1.58; Phage binding ELISA signal, Anti-PSMA Fab with PSMA antigen [6]: 0.0718
VMHRCEPSWMCWGF [Phage-3601]	0.118	1.58			
LERLCRPAWMCDGF [Phage-3596]	0.136	1.59			
B3					Phage binding ELISA signal, Anti-PSMA Fab [5]: 1.58; Phage binding ELISA signal, Anti-PSMA Fab with PSMA antigen [6]: 0.123
WEVRCEPAWMCIGL [Phage-3600]	0.0694	1.59			
EIPWCVPSWMCNYF [Phage-3597]	0.0904	1.59			
B4					Phage binding ELISA signal, Anti-PSMA Fab (PSMA Fab (006 PSMA Fab) [7]): 1.62; Phage binding ELISA signal, Anti-PSMA Fab in presence of PSMA (PSMA Fab (006 PSMA Fab) [8]): 0.0923
ESHLCRPAWMCTGF (Tested as clonal phage supernatant) [Phage-3588 (Peptide-180 library clone)]			0.089	1.6	
TTLMCTPQWMCDGF (Tested as clonal phage supernatant) [Phage-3589 (Peptide-180 library clone)]			0.0718	1.6	
ESYTCVPMWMCTGF (Tested as clonal phage supernatant) [Phage-3582 (Peptide-180 library clone)]			0.088	1.61	

Binder	Phage binding ELISA signal, Anti-PSMA Fab with PSMA antigen (PSMA Fab [1])	Phage binding ELISA signal, Anti-PSMA Fab (PSMA Fab [2])	Phage binding ELISA signal, Anti-PSMA Fab with PSMA antigen (Anti-PSMA Fab [3])	Phage binding ELISA signal, Anti-PSMA Fab (Anti-PSMA Fab [4])	further results
MPGACVPLWMCYGF [Phage-3590]	0.0685	1.6			
EELMCRPVWMCLGF [Phage-3591]	0.0789	1.6			
VEKMCKPAWMCNVF [Phage-3592]	0.0777	1.6			
B5					Phage binding ELISA signal, Anti-PSMA Fab (PSMA Fab (006 PSMA Fab) [7]): 1.62; Phage binding ELISA signal, Anti-PSMA Fab in presence of PSMA (PSMA Fab (006 PSMA Fab) [8]): 0.0695
TEIRCQPQWMCHGF [Phage-3594]	0.0698	1.6			
B6					Phage binding ELISA signal, Anti-PSMA Fab (PSMA Fab (006 PSMA Fab) [7]): 1.62; Phage binding ELISA signal, Anti-PSMA Fab in presence of PSMA (PSMA Fab (006 PSMA Fab) [8]): 0.0941
GMGMCVPTWMCTGM (Tested as clonal phage supernatant) [Phage-3579 (Peptide-180 library clone)]			0.0797	1.62	
QLAMCVPLWMCYGF (Tested as clonal phage supernatant) [Phage-3580 (Peptide-180 library clone)]			0.092	1.62	
NIMRCQPSWMCTGF (Tested as clonal phage supernatant) [Phage-3583 (Peptide-180 library clone)]			0.064	1.61	
PDPLCVPNWMCIGL [Phage-3593]	0.0686	1.6			
QDLKCVPSWMCSGF [Phage-3599]	0.0713	1.59			
PSPICRPEWMCVWL (Tested as clonal phage supernatant) [Phage-3584 (Peptide-180 library clone)]			0.0954	1.61	
EGLRCVPAWMCAGF [Phage-3603]	0.0633	1.58			
QGVACIPTWMCTGF [Phage-3595]	0.0711	1.59			
LGHWCSPTWMCMGF (Tested as clonal phage supernatant) [Phage-3581 (Peptide-180 library clone)]			0.11	1.62	
ETFTCKPPWMCIGF (Tested as clonal phage supernatant) [Phage-3576 (Peptide-180 library clone)]			0.104	1.62	
B7					Phage binding ELISA signal, Anti-PSMA Fab (PSMA Fab (006 PSMA Fab) [7]): 1.62; Phage binding ELISA signal, Anti-PSMA Fab in presence of PSMA (PSMA Fab (006 PSMA Fab) [8]): 0.0691
B8					Phage binding ELISA signal, Anti-PSMA Fab (PSMA Fab (006 PSMA Fab) [7]): 1.62; Phage binding ELISA signal, Anti-PSMA Fab in presence of PSMA (PSMA Fab (006 PSMA Fab) [8]): 0.076

From patent US20260242478A1 (published 2026)
